According to patent US20160251409A1:

Target: GPIIb/IIIa receptor on platelets (human) (UniProt P08514)
Test: cell-based or functional assay

For Abciximab (ReoPro®) (Fab), the Platelet aggregation, 30 nM, SFLLRN 10 µM activated platelets was 60.7 % of control.
